Source: patent US20230235058A1 (OXFORD UNIVERSITY INNOVATION, published 2023)

What was measured:
[1] = target: full length human BTLA expressed on cells (human, UniProt Q7Z6A9 31-289); assay: cell-based or functional assay
[2] = target: chimeric BTLA of humanised-BTLA mice (human extracellular region, murine transmembrane and signaling … (human; mouse, UniProt Q7TSA3 184-306, limits assumed); assay: cell-based or functional assay
[3] = target: T1, monomeric soluble human BTLA extracellular domain (BTLA K31-R151) (human, UniProt Q7Z6A9 31-151); assay: SPR 37C, mAb captured, BTLA ECD analyte;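 note: Anti-BTLA mouse antibodies captured on a sensor chip via polyclonal anti-mouse IgG, isotype control antibody in reference channel, rates fitted after reference and blank subtraction to derive Kd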
T1 construct: also called hBTLA; monomeric BTLA
Throughout, for AntiCD3/CD28 (CD4 T cell proliferation) repeat 1: test concentration or dose not given here.
Throughout, for AntiCD3/CD28 (CD4 T cell proliferation) repeat 2: test concentration or dose not given here.
Throughout, for AntiCD3/CD28 (CD69+ CD4 T cells) repeat 1: test concentration or dose not given here.
Throughout, for AntiCD3/CD28 (CD69+ CD4 T cells) repeat 2: test concentration or dose not given here.
Throughout, for MLR (CD4 T cell proliferation) repeat 1: test concentration or dose not given here.
Throughout, for MLR (CD4 T cell proliferation) repeat 2: test concentration or dose not given here.
Throughout, for T cell reporter (NFκB signaling): test concentration or dose not given here.

Sequence of chimeric BTLA of humanised-BTLA mice (human extracellular region, murine transmembrane and signaling … (Q7TSA3 other isoform, or with tags, fused parts or gaps mutant limits assumed): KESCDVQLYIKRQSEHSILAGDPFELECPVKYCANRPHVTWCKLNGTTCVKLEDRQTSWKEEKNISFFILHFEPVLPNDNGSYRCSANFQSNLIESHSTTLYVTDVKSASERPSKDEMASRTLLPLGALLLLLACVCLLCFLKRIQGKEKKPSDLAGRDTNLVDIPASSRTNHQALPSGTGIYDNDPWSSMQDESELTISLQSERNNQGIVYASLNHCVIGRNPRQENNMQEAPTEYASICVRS

B1: 11.5.1 D265A (antibody, V domains shown)
VH: EVQLQESGPSLVKPSQTLSLTCSVTGDSITSAYWNWIRKFPGNKLEYMGYISYSGSTYFNPSLKSRISITRNTSKNQYYLQLNSVTTEDTATYYCARSHYYGYYFDYWGHGTTLTVSS
VL: DIVLTQSPASLAVSLGQRATISCRASETIDSYGDSLMHWYQQKAGQPPKLLIYRASNLESGIPARFSGSGSRTDFTLTINPVEADDVATYYCQQTDEDPYTFGGGTKLEIK
- T cell reporter (NFκB signaling) [1]: -13 % inhibition
- AntiCD3/CD28 (CD4 T cell proliferation) repeat 1 [2]: -3 % inhibition
- AntiCD3/CD28 (CD4 T cell proliferation) repeat 2 [2]: -9 % inhibition
- AntiCD3/CD28 (CD69+ CD4 T cells) repeat 1 [2]: -47 % inhibition
- AntiCD3/CD28 (CD69+ CD4 T cells) repeat 2 [2]: -26 % inhibition
- MLR (CD4 T cell proliferation) repeat 1 [2]: -3 % inhibition
- MLR (CD4 T cell proliferation) repeat 2 [2]: 1 % inhibition

B2: 831 (antibody, IgG1, V domains shown)
VH: DVQLQESGPDLVKPSQSLSVTCTVTGYSITSGYSWHWIRQFPGNKLEWMGYIHYSGSTNYNPSLKSRISITRDTSKNQFFLQLSSVTTEDTATYYCASGPHRYDGVWFAYWGQGTLVTVSS
VL: EIVLTQSPTTMAASPGEKITITCSASSSISSNYLHWYQQKPGFSPKLLIYRTSNLASGVPARFSGSGSGTSYSLTIGTMEAEDVATYYCQQGTNIPLTFGAGTKLEIK
- T cell reporter (NFκB signaling) [1]: 24 % inhibition
- AntiCD3/CD28 (CD4 T cell proliferation) repeat 1 [2]: 10 % inhibition
- AntiCD3/CD28 (CD4 T cell proliferation) repeat 2 [2]: 8 % inhibition
- AntiCD3/CD28 (CD69+ CD4 T cells) repeat 1 [2]: 50 % inhibition
- AntiCD3/CD28 (CD69+ CD4 T cells) repeat 2 [2]: 53 % inhibition
- MLR (CD4 T cell proliferation) repeat 1 [2]: 25 % inhibition
- MLR (CD4 T cell proliferation) repeat 2 [2]: 34 % inhibition

B3: 16F10 (antibody, IgG1, V domains shown)
VH: DVQLQESGPGLVKPSQSLSLTCSVTGYSITSGYYWNWIRQFPGNKLEWMGYISYDGSNNYNPSLKNRISITRDTSKNQFFLKLNSVTTEDTATYYCASIYGNYYAMDYWGQGTSVTVSS
VL: QIVLTQSPAIMSASPGEKVTMTCSASSSVSYMHWYQQKSGTSPKRWIYDTSKLASGVPARFSGSGSGTSYSLTISSMEAEDAATYYCQQWSSNPPTFGSGTKLEIK
notes: mIgG1
- Kd [3]: 48.8 nM
- koff [3]: 0.0283 s⁻¹
- kon [3]: 581000 M⁻¹ s⁻¹

B4: 4H4 (antibody, IgG1, V domains shown)
VH: QVQLQQSGAELARPGASVKLSCKASGYTFTSYGISWVKQRTGQGLEWIGEIYPRSGNTYYNEKFKGKATLTADKSSSTAYMELRSLTSEDSAVYFCARRRGAGDGFDYWGQGTTLTVSS
VL: DIQMTQTTSSLSASLGDRVTISCSASQGISNYLNWYQQKPDGTVKLLIYYTSSLHSGVPSRFSGSGSGTDYSLTISNLEPEDIATYYCQQYSKLPFTFGSGTKLEIK
notes: mIgG1
- T cell reporter (NFκB signaling) [1]: 25 % inhibition
- AntiCD3/CD28 (CD4 T cell proliferation) repeat 1 [2]: 14 % inhibition
- AntiCD3/CD28 (CD4 T cell proliferation) repeat 2 [2]: 22 % inhibition
- AntiCD3/CD28 (CD69+ CD4 T cells) repeat 1 [2]: 43 % inhibition
- AntiCD3/CD28 (CD69+ CD4 T cells) repeat 2 [2]: 52 % inhibition
- MLR (CD4 T cell proliferation) repeat 1 [2]: 10 % inhibition
- MLR (CD4 T cell proliferation) repeat 2 [2]: 17 % inhibition
- Kd [3]: 1710 nM
- koff [3]: 0.347 s⁻¹
- kon [3]: 203000 M⁻¹ s⁻¹

B5: 10B1 (antibody, IgG1, V domains shown)
VH: QVQLQQSGAELARPGASVKLSCKASGYTFTSYGISWVKQRTGQGLEWIGEIYPRSGNTYYNEKFKGKATLTADKSSSTAYMELRSLTSEDSAVYFCARNYGSSYPFAYWGQGTLVTVSA
VL: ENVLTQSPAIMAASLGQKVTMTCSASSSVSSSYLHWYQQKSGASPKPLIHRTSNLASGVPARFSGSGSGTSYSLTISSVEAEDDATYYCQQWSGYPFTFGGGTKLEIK
- T cell reporter (NFκB signaling) [1]: 27 % inhibition
- AntiCD3/CD28 (CD4 T cell proliferation) repeat 1 [2]: 8 % inhibition
- AntiCD3/CD28 (CD4 T cell proliferation) repeat 2 [2]: 14 % inhibition
- AntiCD3/CD28 (CD69+ CD4 T cells) repeat 1 [2]: 24 % inhibition
- AntiCD3/CD28 (CD69+ CD4 T cells) repeat 2 [2]: 36 % inhibition
- MLR (CD4 T cell proliferation) repeat 1 [2]: 16 % inhibition
- MLR (CD4 T cell proliferation) repeat 2 [2]: 25 % inhibition

B6: 16E1 (antibody, IgG1, V domains shown)
VH: QVQLQQSGAELARPGASVKLSCKASGYTFTSYGISWVKQRTGQGLEWIGEIYPRSGNTYYNEKFKGKATLTADKSSSTAYMELRSLTSEDSAVYFCARGYGSSYGFAYWGQGTLVTVSA
VL: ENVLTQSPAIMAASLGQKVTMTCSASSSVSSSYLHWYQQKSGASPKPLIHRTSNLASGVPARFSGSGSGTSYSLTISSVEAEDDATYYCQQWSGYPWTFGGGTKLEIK
- T cell reporter (NFκB signaling) [1]: 22 % inhibition
- AntiCD3/CD28 (CD4 T cell proliferation) repeat 1 [2]: 4 % inhibition
- AntiCD3/CD28 (CD4 T cell proliferation) repeat 2 [2]: 8 % inhibition
- AntiCD3/CD28 (CD69+ CD4 T cells) repeat 1 [2]: 9 % inhibition
- AntiCD3/CD28 (CD69+ CD4 T cells) repeat 2 [2]: 23 % inhibition
- MLR (CD4 T cell proliferation) repeat 1 [2]: 33 % inhibition
- MLR (CD4 T cell proliferation) repeat 2 [2]: 8 % inhibition

B7: 4B1 (antibody, IgG1, V domains shown)
VH: QVQLQQSGAELARPGASVRLSCKASGYTFTSYGLIWLKQRTGQGLEWIGEIYPRSGSTYYNEWFKGKATLTADKSSNTAFMELRSLTSEDSAVYFCARRRGTGDGFDYWGQGTILTVSS
VL: DIQMTQTTSSLSASLGDRVTISCSASQGISNYLNWYQQKPDGTVKLLIYYTSSLHSGVPSRFSGSGSGTDYSLTISNLEPEDIATYYCQQYIELPFTFGSGTKLEIK
notes: mIgG1
- T cell reporter (NFκB signaling) [1]: 23 % inhibition
- AntiCD3/CD28 (CD4 T cell proliferation) repeat 1 [2]: 14 % inhibition
- AntiCD3/CD28 (CD4 T cell proliferation) repeat 2 [2]: 18 % inhibition
- AntiCD3/CD28 (CD69+ CD4 T cells) repeat 1 [2]: 47 % inhibition
- AntiCD3/CD28 (CD69+ CD4 T cells) repeat 2 [2]: 41 % inhibition
- MLR (CD4 T cell proliferation) repeat 1 [2]: 33 % inhibition
- MLR (CD4 T cell proliferation) repeat 2 [2]: 30 % inhibition
- Kd [3]: 3.21 nM
- koff [3]: 0.00185 s⁻¹
- kon [3]: 577000 M⁻¹ s⁻¹

B8: 4D5 (antibody, IgG1, V domains shown)
VH: QIQLVQSGPELKKPGETVKISCKASGYTFTTYGVSWVKQAPGKVLKWMGWINTYSGVPTYADDFKGRFAFSLETSASTAYLQISNLKNEDTATYFCAPVTTILHWYFDVWGTGTTVTVSS
VL: DIQMTQSPSSLSASLGERVSLTCRASQEISGYLSWLQQKPDGTIKRLIYAASTLDSGVPKRFRGSRSGSDYSLTISSLESEDFADYYCLQYASYPFTFGSGTKLEIK
notes: mIgG1
- Kd [3]: 2930 nM
- koff [3]: 0.79 s⁻¹
- kon [3]: 270000 M⁻¹ s⁻¹

B9: 15B6 (antibody, IgG1, V domains shown)
VH: QVQLQQPGAELVKPGASVKLSCKASGYTFTSYWMHWVKQRPGQGLEWIGMIHPNSGSTNYNEKFKSKATLTVDKSSSTAYMQLSSLTSEDSAVYYCARKRGGLGDYWGQGTSVTVSS
VL: DIVLTQSPASLAVSLGQRATISCRASKSVSTSGYSYMHWYQQKPGQPPKLLIYLASNLESGVPARFSGSGSGTDFTLNIHPVEEEDAATYYCQHSRELPYTFGGGTKLEIK
- T cell reporter (NFκB signaling) [1]: 21 % inhibition
- AntiCD3/CD28 (CD4 T cell proliferation) repeat 1 [2]: 9 % inhibition
- AntiCD3/CD28 (CD4 T cell proliferation) repeat 2 [2]: 16 % inhibition
- AntiCD3/CD28 (CD69+ CD4 T cells) repeat 1 [2]: 13 % inhibition
- AntiCD3/CD28 (CD69+ CD4 T cells) repeat 2 [2]: 20 % inhibition
- MLR (CD4 T cell proliferation) repeat 1 [2]: 7 % inhibition
- MLR (CD4 T cell proliferation) repeat 2 [2]: 13 % inhibition
